# Reference: the DeepSol protein solubility set
# Experiment: soluble on expression in E. coli; label from the status in PepcDB or PDB records
row,Sequence,soluble on expression in E. coli
1,MTKEEIIKPENLVYKKPTLMNDNPMHYCPGCSHGVVHKLIAEVIEEMGMEDKAIGVSPVGCAVFAYNYLDIDWQEAAHGRAPAVATAIKRLWPGRLVFTYQGDGDLACIGTAETIHALNRGENITIIFINNAIYGMTGGQMAPTTLVGMKTATCPYGRDVAIHGYPLKMTEIAATLEGTAYVTRQAVHTVPAIRKAKKAIRKAFENSMNGKGSNLVEIVSTCNSGWKMTPQASNDWMVEHMFPFYPLGDLKDKE,not soluble
2,MTKMSITVNQTVLHQLVKNVDGDSIKMESVLRDELLSITPEVEQMMLQLHQSYQNKAKAFGVFQEKSIFAQHLNRLLEQEIEFLGFSQYSTKLLADELGKYNFAESGTLILCQYNFLATDYLFIALLDSRHSMLVDEHLDIRRTEYLDITQFDIAARINLTDLQVNANSNRYLTFIKGRVGRKISDFFMDFLGAEEGLNPQVQNQCLLQAVSDYCDQGELNKEQTQAVKKQVFEYCKGQLSNGNNIELRELSDSLPTLNEQPFVVFTEKQNYGLEESIPPIRSTLKSLTKFSGSGKGVTLSFDAELLNTRIQWDPMTDTLTIKGLPPNLKDQLQKALKSEN,not soluble
3,MTKSILLVGVGGQGTILASKLLTMGLMEAGYDVKMSEIHGMSQRGGSVSSQVRYGDCVHSPVIEIGGADILVSFEKMEALRWFNYLKPEGKALVNNHRIDSMTVLIGGAEYQESDIDAELSRLNAKVINAADKAEELGNSKIMNVILLGCLVKSMQLESIDWEKIISENVKPKFVELNIKAFHEGMEMVSK,not soluble
4,MTKSRKQKQKKQDFLRKKLKVGKPKEKARNATDTSFVSKTISIRNQHLDQNPHDLTKRLTLLKHHNINVRKETLTTFQKSIPSIIKSRLMTPLLTQSIPLICDESQQVRQGLIDLVDEIGSHDAEILKLHCNIFVLYINMAMTHIVTQIQADSTKFLSHLLKYCGDEVVRKSWVKLLNGVFGVLGWGQVGKNDSASIVQTKKRNAKYVTIHLNALYTLVEYGCQDERARSDGDTAETTEDSGTLRNPYLIPDYPQPFEHLKLFTRELKVQDATSSGVNATLLSLATQDIDTRKAVFIEQFLPIVRKKIEVIIKEGGECGKSANKLKTLLAKIFD,soluble
5,MTKTLETQPEEKTVFLCKETNPDFLGREIYADNVETPYNFYLIRKLYLAKEYQNLAEGEQFFEALCESWDESEQFEELIVKKIYVYVETELMYYTVYFGSFEPTTRDLRSALKQWMYEIPTTKNKKTVRMNETNVQVVPQENQLTELAGEIAVLREMLTLLKENLASLNEAVNQTRNPVISRQIKTIHLKRASPVIAAEQASLKVSEDTNLEQPDVNLSPDNRENQEGETTVATSEPAPIKEALPEKKQENQQSTAAKPLFTFPQETEKSSLNSVNKSAEKEEEQKPEKEAVSMESEKENSSSRTIPADFQRQLDELEEEIYRRFMSRHLEDTDGNQAVPKITIEKRQLEAQMFEAKAFSQSFKQVQKKKAGDVRICNQLSCMKLEKGLDKFLDEVTEYVEKRTLFNKKVRCPLPVIRELEGYGQLNQYMQKILDCY,not soluble
6,MTLAVLASRAIAGWQAPAVRVETHLGSGLPAFAIVGLPDVEVRESRERVRAAIQNSGFDFPPGRITVNLSPADLPKASARFDLPIALGILLASGQVAASAAQTAALPDCVWAAELSLSGALVPLAAPLALALAVAREQPGATLVLPAGSAAVAAWVPGIRVLAAHTLGEAAAYLAGHAELAPAERRSWPEAEPGPCLSDVRGQPAARRALEVAAAGGHSLLMCGPPGAGKSMLAQRLPGLLPPLEQRQALEVAAIAGAGGAPEVLRGQPPFRAPHHSASAAALVGGGARPRPGEISLAHHGVLFLDELPEFERRALESLREPLETGKVVISRALHSVEYPAVFQLVAAMNPCPCGWRGHASKACRCTPDQVRRYAARVSGPLVDRIDLWIELPATEPQWLAEPPGEPSLPVRERVARCRQRQLARQGCLNAKLSGPALDAHCALGAAARTLLQQAMRRLGGSARAAHRALRVARTLADLAHEPEIGAAHIAEAVQYRRPT,not soluble
7,MTLDYIYHSGFAIEAEGVTVIIDYYKDSSETEHNRGIVHDYLLQRPGKLYVLATHFHPDHFNREILTWKEARPDIRYIFSKDILKSHRAKPEDATYIKKGETYEDETIRIEAFGSTDVGSSFLIHLQDWNIFHAGDLNNWHWSEESTEAEIRKANGDFLAEVKYLKEKAPKIDLALFPVDRRMGKDYMKGAKQFIEQIKTTIFVPMHFSEDYEGGNALRDFAENAGCRFVSITHRGESFEITK,not soluble
8,MTLEQQDRTEQQLAALNAQVRQDLCYLNYPAANWSKPVSTSDGQLVSDVVIIGGGMCGLVAWHALTRAGIANIRIVDRAAKGEEGPWVTYARMETLRSPKNLLGPALGMASLTFRAWYTARFGKEAWEELFRIPRPMWMEYLSWYRQVMEIPVENNIHVTRVIPRLDGLLELEIEGGKADPIITRKLVMATGRDGLGEPTIPDFVKGMPRHVSWAHSADMIDFQRLKGKRVVVIGVGASAVDNAAEALEQGAGEVRLLARRKTMPTINKLMGIGSYGVTAGFAKIDPEWRWRLMDYSVKQQTPAPHNSTLRVSRHSNAYFHFDCGIQSMKEEGGEVVITTINGRVFRTDFVILGTGFSIDPVSRPELEMFNGQIACWEDRYTPPAGEENPGLGRFPWLQDDFSFTEKEPGAAPWLQHIHCFNYGSSVSLGKVSGDIPAISEGALWLARGIAASLFIADIDHHWEALKAYEKPELDGSEWTDADADPSMQKTALEHHHHHH,soluble
9,MTLKNNILPLLMLSCCFVLAACSSSNSASASASNKNKNMEPNKGRYSLKNDKMPLNPPNVDHVPNATPKYEPYSRRGNKPYTVYGESYTVLNSGEGFSETGRASWYGEKFHGYETSNGEPYDMYGMSGAHKTLPLPSYARVTNLDNNKQVIIRINDRGPFHSERILDLSYAAAYKLGMLGTGTARIKLDVIYIGSKAATQSAIASVHSSGNHYIQLVASKDKQRLHKMAKDLEKKYQVKTRVQPANNMFRLQLGPIGQAELADRLLIKVKQDGYPAGYIVSEK,not soluble
10,MTLMIDENFKKQLAQRRERVEDLFYFENSKEIGRGTYGLVYKAVPKKQNGQFPNKEYALKMIEGQGFSMSACREIALFRELRHPNLICLQRVFLTNEKKVWLLLDYAEHDLWHVIKHHRTAKSKKVPIMVPRNMVKNILFQILSGMHYLHSNWVLHRDLKPANILLMGDGPPDMRGRVKIADLGFSRIYANPLKPMAELDPVVVTFWYRAPELLLGAKHYTKAIDVWAIGCIFAELLTAEPLFFCKEEDIKAQNPYHYDQVKRIFHLLGYPSDADWPDMKKMPDHQRLLSDARNEGTPIQTFPNSLHRYFDKWKINSQSSPYRLLVKLLTVDPTKRVSCEEAMNDIYFRKMERPPRETDDVFNKYPIPYAKKEQQMTVAPDQAQQQHQQQQVQMQQQPQMGQQQMMGQPQMVQPQMGQPPMGGAHPGVVAPDGHPHQMMQQQQHPQQHHMQYQGMHDPMQGGMDEGPQAKMMRMGNVPVGRYAPMPPPYGAPQDYHPQQGPPMVQMMQQPGPSGYYPQRPGQPTGAVPGPGPQGYMNPQMGMQMGMRAPGVPPQGYMPGRGMAPPQMGQQQPGPNQQQQQQWQQQYHR,not soluble
11,MTLNIQGIAASSGIAIAKAFRLENPEFNIEQKSITNEAAEIARLEAALEKAKTELEAIKDHAFAELGADKAAIFEAHLLVLNDPELVNPVKDKVNSEKVNAEFAMDEVASMFISMFENMDNEYMKERAADIRDVTKRVLAHLLGINFSNPGTNSEEVIIIAEDLTPSDTAQLNRKYAKGFTTDIGGRTSHSAIMARSMEIPAVVGTKVVMEKIQNGDIVIIDGLDGEVIVNPSEETLRSFEEKKAKFEEQKAEWAKLKDQATVTSDGHHVELVANIGTLNDVQGIIDNGGEGVGLYRTEFLYMGRDNLPTEEEQFEAYKAVLEGVKEGQPVVVRTLDIGGDKELPYLHLPKEMNPFLGYRAIRLCLDEQDVFRTQLRALLRASVYGNLKIMFPMIATLDEFRQAKAILLEEKAKLVEVGTTVSDSIEVGMMVEIPASAVLADQFAKEVDFFSIGTNDLIQYTMAADRMNEQVSYLYQPYNLSILRLVKMVIDAAHKEGKWAGMCGEMAGDSLAIPLLLGLGLDEFSMSATSILPARTQLSKLSKAEMETLAEKALMMSTAEEVVELVKSI,not soluble
12,MTLSFDDAAATVKTLKTSPSNDELLKLYALFKQGTVGDNTTDKPGMFDLKGKAKWSAWDEKKGLAKDDAQKAYVALVEELIAKYGA,soluble
